Reference: a protein production outcome set (Wang et al. 2014)

Assay: label from the status in PepcDB records

Row | Sequence | protein production
1 | MSKARKTAASSGEPDFWRVARDWLHHWLPKVRGSSPKTVEAYRIGLESYVRWLETTEGTQRSHIGFGHFDRARLGRWVEWMRTERGYSDRTIMLRMTTMRVFLDHAGLEHPALTALGNDAAGIRVKPPARKPVDHLGEEHTKALLTAWGTGDAKSRRNRMLLILMYDTAARIGELAALTIADVGMDKPARVTLTGKRGKSRVVPLGERTRTHLAAYLEEFHPGPSMRDGDRPLFHSTRNGAIQPLSVDRIDEILKTAAARARRGTCPSMPERVHCHLIRRTRAMDLYQQGVPLPLIMQLLGHESMSTTSAFYAFATLDMMRKAVDAANPGPDPSKETWLSEQRLRQLHTLK | failed
2 | MLTFAAAVLFLIITPGPGVMTTAGFGAAYGFRASLSYVVGLFIGTNLVMLAVMTGLAAVLLSVPGLRLVLLVLSVGYLLYLAALIALAGARVAFIEARSAPGVMRGVLLQAINPKAYAVNTSLITGFNYAPDAFLFEMFTKALILNAIWIPIHLAWLWAGAALHRLNLPHSTQRAINILMALSMLGVVALALWSASRVKA | failed
3 | MEKYSQVIFDKNTVEFVTVAAEFCGFLERARDMKRYDFVDTALKILPLLYLKATLLPPCEPIGEDEPETFVTEEDYELIRRAIAGVLGAKDDYLEVFLPDMVYSDTPIKKCISEDLADIYQDLKDFISVFQLGLNETMNDSLVVCKEHFREFWGQRLVNTMRALHDVKYSPLEHHHHHH | not failed
4 | MKQARRHCWRRGIAATLIGGVISRRGTRASIGRDGLQLRFAALPWRTRCVAAAFCRFVKRSTRTPRARQESAVGLATLDIVIVLVYLTGIFVLAQWVSREKAGHSKSAEDYFLASKSLPWWAIGASLIAANISAEQIIGMAGSGYAIGLAIASYEWMAALTLLIVGKFFLPIFLRNGIYTMPQFLEQRYGKWIRTLMAVFWLLLYVFVNLTSILWLGSIAVSQVTGMDQTLALALIGVFALVYQLYGGLKAVALTDIVQVTLLVLGGLLVAALTLARIGDGAGVLEGFQHLWNAHPEHFHMILTKDNPFYKDLPGLSVLLGGLWVMNISYWGFNQYIIQRALAAKNIGEAQKGMVFAAFLKLLMPLVIVVPGIAAVVLAPDLAKPDQAYPTMMQLLPTGMLGLVFAALVAAIVASLASKINSVATIFTLDFYAKFRPQTEQKQLVRVGRIVAAVSVLIGILTARPLLGNFDQGFQFIQEFTGFFTPGVVVIFMLGLFWKRANEAGALTAAIGSVVLSFVLKFAWPELPFMDRIGVVFVAALMLAVLVSLLTPATQARDLIRTNEVAYGTTLSFKIGAAGVIAILIVLYTVFW | failed
5 | MSLGQTTLACSFRSLTNPYYTAFNKGAQSFAKSVGLPYVPLTTEGSSEKGIADIRALLQKTGGNLVLNVDPNDSADARVIVEACSKAGAYVTTIWNKPKDLHPWDYNPNYVAHLSYDGVAYGEETATQLFKSMGGKGGVVALGGIFSNVPAIERKAGLDAALKKFPGIQLLDFQVADWNSQKAFPIMQAWMTRFNSKIKGVWAANDDMALGAIEALRAEGLAGQIPVTGMDGTQPGLVAIKSGELVASVDWDPFWLGGIGLSMGLQAKEKKIDLATLPKDRRESFCTATFVTKTNVQDVIARAASPKAEWNNLYARVAGPVVYREGHHHHHH | not failed
6 | MARGREAVTLLLVGWGYAPGMQTLEALDAVRRADVVYVESYTMPGSSWLYKSVVEAAGEARVVEASRRDLEERSREIVSRALDAVVAVVTAGDPMVATTHSSLAAEALEAGVAVRYIPGVSGVQAARGATMLSFYRFGGTVTLPGPWRGVTPISVARRIYLNLCAGLHTTALLDVDERGVQLSPGQGVSLLLEADREYAREAGAPALLARLPSVLVEAGAGGGHRVLYWSSLERLSTADVEGGVYSIVIPARLSGVEEWLLAAASGQRRPLEYDRSVYETVEENCKKGVYMEPV | not failed
7 | MVLLLDYWDQWAEAYRINGKSINTVYRYKLFRKHLKSRFDGRKLNSIRPIEWQKFINDFAAGKDRKEKTTRKRPRERSKDIVTKMNSYVRGMVKAAINERILFSDFTFGTKTSGVRSSGKVKVLEHHHHHH | failed
8 | MGPQRRLRPHEPWPTRSQPGSPAAAESSFLPSVSLLSWKLGDSAMSENRKLAAILAADVVGYSRLAGADEDLTLARLRTLRSDLIDPTIAVHHGRVVKRTGDGALVEFRSVVDAVRCAIEVQNGMVERNHGVPQDRRIEFRIGIHLGDVVEESDGDLMGDGVNIASRLEGVAAAGAICLSEDAYRQVKARLDLSVNDLGSTQLKNIAEPIRVYSLQVGSAGTKLAASPETAVSQPATAAPPKLSIAVLPFTNMSGDAEQDYFADGISEDIITALSKLSQLFVIARNSSFTFKGKNVHVQEVGTKLGVRHVLEGSVRKSGNRVRITAQLIDATTGGHLWAERFDRDLTDIFAVQDDVTQQIVGALAVNLTEGDRQRLAPGQTRHPEAYDCFLRGRELWHRLTRQTNSDARDLLQRAVDLDPNFASAHAFLALTHGLDYLNRWSALPQRSLEQAEEVATLAVARDDSDPVAHWALSLVSLYLRQHDRAISEAERAIVLNPNFAEGHVSLGEALIYSGRSGEALAYFDRASVLNPYFPDIVLHFQALALFQLGRYEEAVELLLQRVSRNPVTDVSRALLAACYGHLGRFEEARATWQEVMRVNPDYSLEYRRKVLPFKNPADFELVVEGLRKAGVVQ | failed
9 | MKTTALRLYGKRDLRLETFDLPEMQEDEILATVVTDSLCLSSWKEANLGENHKKVPDDVATNPIIIGHEFCGDILAVGKKWQHKFQPGQRYVIQANLQLPDRPDCPGYSFPWVGGEATHVVIPNEVMEQDCLLAYDGETYFEGSLVEPLSCVIGAFNANYHLQEGSYNHTMGIRPQGRMLILGGTGPMGLLAIDYALHGPVNPSQLVITDTDNDKLSYARKHYPSEPQTLIHYLNAADAAFDTLMALSGGHGFDDIFVFVPNEGLVTLASSLLATDGCLNFFAGPQDKHFSAPINFYDVHYAFTHYVGTSGGNTDDMRAAVKLIEEKKVQAAKVVTHILGLNAAGETTLELPAVGGGKKLVYTGKYLPLTSLTQIQDQALAAILARHQGIWSGEAEQYLLTHAEAISHD | failed
10 | MAKSSVANIFTFSNLSCGLLSLIMTLAASSTNNEYYKLACLFILIAGIIDRYDGRVARALNVSSELGKELDSLADLVSFGVAPSILAYHLCNFSSNFNFLGYIFVLIFPIAGAYRLARYNLSTFDGVFRGIPITLAGMFMALYSLIYLLLNTQPNAVLTIVIMLILSYLMVSNLKLKKL | not failed
11 | MGTAWNYPDLGSKNPMSGMVQSETAVIGGAGNVGMGIVAALLDAGMPTVVIGRDAAKLDALRAQHGHSPLLDIVQGSVADDASARRLATELAQRHRPLGAVIASLGSPPKAGRLLDRPVAVLRRRLERDVLPHLAAARHLLPLLAEADGGGRYLLLGSPCALRAWSAHGDRSVAASATRMLAQVLHEEAKPLGVRVQLLSVEQPVCTPGRAKDACPEWIRAVDVGRAAVSLIAGPGQPGQAIVTVSRRPHAAPSASRLAGLHVSIPTREISP | failed
12 | MSLIFTAIVVFLFILAIFDLIVGVSNDAVNFLNSAIGAKAAPFKIIVGVAALGVFCGAAMNNGMMEIARHGIFRPEHYTFSELMVVFLSVVITDVVLMDMFNSLGMPTSTTVSLIFELLGGSFFMAMTKVGGTVGFQDLLNTEKALSVILGIFLSVGIAFFFGMVVQYLSRLLFTFNYRRNLRWLAGLFGGVAVTSIIYFMLIKGLKGVSFMTEESTAWIAANTGRLVLYCLVVSIILMQVLYWLRVNVFKVIVLLGTFALAMAFAGNDLVNFIGVPLAGYSSYLDFNANGNGQYDTYLMGALNEPASTPVYFLVAAGIVMVYALITSKKAHNVIKTSVDLARQEEGEEMFGSSGLARSIVRFSTTTANAVSRIIPRPVGRWIDSRFNQDELIMAKGAAFDLVRASVNLVLAGLLIAFGTSLRLPLSTTYVAFMVAMGTSLADRAWSRESAVFRITGVFSVIGGWFITAGAAFILCFLVTMVNHFGGYPAMAGMIILAIFLLVRSHIRFDKKKKSETKDTVFIDMMASHDKEEIWQLLAKHIRQKQLALLDFAENNYMQMTDGFINEDLKRLRRSINDQNAERQMLKVNRRKETLGIRRIEEAKSVVKNTWFHLGCNSCEQIVFCLKRIAEPCKEHVDNNFNPLPKVCVSEFLAAREKLILYIKEAKLIVSNETDEILDPMTYRGKDIKKELKQLRKTQLSRIQQGASSLKISLVYLNLLQESQQLVNILDDLIHATEKLFDPVARIGTDEEFFN | failed
13 | MANIKIRQETPTAFYIKVHDTDNVAIIVNDNGLKAGTRFPDGLELIEHIPQGHKVALLDIPANGEIIRYGEVIGYAVRAIPRGSWIDESMVVLPEA | not failed
